Source: patent US10093741 (FUSION PHARMACEUTICALS, dated 2018)
Values belong to the binder of their own block, whether it stands above or below them.

Experiments:
[1] = biological target: T1, insulin-like growth factor-1 receptor (IGF-1R) (human, UniProt P08069 31-1367); experiment: cell-based or functional assay
[2] = biological target: T1, insulin-like growth factor-1 receptor …; experiment: cell-based or functional assay; remark: listed apart in the source
[3] = biological target: T1, insulin-like growth factor-1 receptor …; experiment: saturation radioligand binding on IGF-1R expressing A431 cells, 4 °C, specific binding fitted to single-site model
Protocol: The purpose of this assay was to ensure that these new radioconjugates maintained binding characteristics consistent with the native antibody in an IGF-1R expressing A431 cell line. Twenty-four hours prior to the start of the experiment, 1.5×10^5 A431 cells were seeded in 48-well microplates in 500 μl supplemented medium. The radioconjugate was diluted with binding buffer (PBS+0.5% BSA) to a range of concentrations from 0.08 nM to 40 nM; final assay concentration 0.04 to 20 nM. At the start of the assay, the media is aspirated, discarded and 500 μl of serum-free DMEM was added to each well. The plates were incubated at 37° C. for 1 hour. Following incubation, media was aspirated from each well and discarded. The cells were washed and 100 μl of binding buffer (total binding assay) or, for non-specific binding assay, 4 μM cold-antibody was added to designated wells. Plates were incubated at 4° C. for 1 hour with mild shaking. Following the blocking step, 100 μl of radioimmunoconjugate was added to each well. The plates were then incubated at 4° C. for 2 hours. Following incubation, the contents of each well was aspirated and discarded. The cells were washed twice with PBS and were then lysed with 1% Triton-X-100. The lysates were transferred to counting tubes and run with radioconjugate standards on the Wizard 1470 gamma counter to determine the radioactivity content (in counts per minute (CPM)) for each lysate. The remaining lysate from each well (25 μl) was transferred to a 96-well plate, and the protein content of each lysate determined using a standard protein quantification assay. Total, non-specific and specific ligand binding determinations, mass of bound conjugate in each lysate were calculated by converting lysate CPM to fmol bound using the specific activity of the conjugate standards and then normalizing the fmol bound to the protein content of each lysate (in milligrams). Specific binding was determined by subtracting the non-specific binding from total binding. […]

[4] = biological target: T1, insulin-like growth factor-1 receptor …; experiment: saturation radioligand binding on A549 cells (NSCLC)
Protocol: (§1) Twenty-four hours prior to the start of the experiment, 1.5 ×10^5 cells were seeded in 48-well microplates in 500 µl supplemented medium. The radiolabeled conjugate was diluted with binding buffer (PBS+0.5% BSA) to a range of concentrations from 0.08 nM to 40 nM; final assay concentration 0.04 to 20 nM. At the start of the assay, the media is aspirated, discarded and 500 µl of serum-free DMEM was added to each well. The plates were incubated at 37° C. for 1 h. Following incubation, media was aspirated from each well and discarded. The cells were washed and 100 µl of binding buffer (total binding) or 4 µM cold-antibody (non-specific binding) added to designated wells. […] The lysates were transferred to counting tubes and run with labeled conjugate standards on the Wizard 1470 gamma counter to determine the radioactivity content (in counts per minute (CPM)) for each lysate. The remaining lysate from each well (25 µl) was transferred to a 96-well plate, and the protein content of each lysate determined using a standard protein quantification assay. Total, non-specific and specific ligand binding determinations, mass of bound conjugate in each lysate were calculated by converting lysate CPM to fmol bound using the specific activity of the conjugate standards and then normalizing the fmol bound to the protein content of each lysate (in milligrams). […]

[5] = biological target: T1, insulin-like growth factor-1 receptor …; experiment: saturation radioligand binding on H226 cells (NSCLC)
Protocol: as §1

[6] = biological target: T1, insulin-like growth factor-1 receptor …; experiment: saturation radioligand binding on PC-3 cells (prostate)
Protocol: as §1

[7] = biological target: T1, insulin-like growth factor-1 receptor …; experiment: saturation radioligand binding on LnCaP cells (prostate)
Protocol: as §1

[8] = biological target: T1, insulin-like growth factor-1 receptor …; experiment: saturation radioligand binding on Du-145 cells (prostate)
Protocol: as §1

[9] = biological target: T1, insulin-like growth factor-1 receptor …; experiment: saturation radioligand binding on BxPC3 cells (pancreatic)
Protocol: as §1

[10] = biological target: T1, insulin-like growth factor-1 receptor …; experiment: saturation radioligand binding on MiaPaca-II cells (pancreatic)
Protocol: as §1

[11] = biological target: T1, insulin-like growth factor-1 receptor …; experiment: saturation radioligand binding on A431 cells (epidermoid carcinoma)
Protocol: as §1

[12] = biological target: T1, insulin-like growth factor-1 receptor …; experiment: saturation radioligand binding on A431 epidermoid carcinoma cells
Protocol: The plates were incubated at 37° C. for 1 h. Following incubation, media was aspirated from each well and discarded. The cells were washed and 100 µl of binding buffer (total binding) or 4 µM cold-antibody (non-specific binding) added to designated wells. Plates were incubated at 4° C. for 1 h with mild shaking. Following the blocking step, 100 µl of labeled conjugate was added to each well. The plates were then incubated at 4° C. for 2 h. Following incubation, the contents of each well was aspirated and discarded. The cells were washed twice with PBS and were then lysed with 1% Triton-X-100. The lysates were transferred to counting tubes and run with labeled conjugate standards on the Wizard 1470 gamma counter to determine the radioactivity content (in counts per minute (CPM)) for each lysate. The remaining lysate from each well (25 µl) was transferred to a 96-well plate, and the protein content of each lysate determined using a standard protein quantification assay. Total, non-specific and specific ligand binding determinations, mass of bound conjugate in each lysate were calculated by converting lysate CPM to fmol bound using the specific activity of the conjugate standards and then normalizing the fmol bound to the protein content of each lysate (in milligrams). Specific binding was determined by subtracting the non-specific binding from total binding. […]

T1 sequence (P08069 31-1367): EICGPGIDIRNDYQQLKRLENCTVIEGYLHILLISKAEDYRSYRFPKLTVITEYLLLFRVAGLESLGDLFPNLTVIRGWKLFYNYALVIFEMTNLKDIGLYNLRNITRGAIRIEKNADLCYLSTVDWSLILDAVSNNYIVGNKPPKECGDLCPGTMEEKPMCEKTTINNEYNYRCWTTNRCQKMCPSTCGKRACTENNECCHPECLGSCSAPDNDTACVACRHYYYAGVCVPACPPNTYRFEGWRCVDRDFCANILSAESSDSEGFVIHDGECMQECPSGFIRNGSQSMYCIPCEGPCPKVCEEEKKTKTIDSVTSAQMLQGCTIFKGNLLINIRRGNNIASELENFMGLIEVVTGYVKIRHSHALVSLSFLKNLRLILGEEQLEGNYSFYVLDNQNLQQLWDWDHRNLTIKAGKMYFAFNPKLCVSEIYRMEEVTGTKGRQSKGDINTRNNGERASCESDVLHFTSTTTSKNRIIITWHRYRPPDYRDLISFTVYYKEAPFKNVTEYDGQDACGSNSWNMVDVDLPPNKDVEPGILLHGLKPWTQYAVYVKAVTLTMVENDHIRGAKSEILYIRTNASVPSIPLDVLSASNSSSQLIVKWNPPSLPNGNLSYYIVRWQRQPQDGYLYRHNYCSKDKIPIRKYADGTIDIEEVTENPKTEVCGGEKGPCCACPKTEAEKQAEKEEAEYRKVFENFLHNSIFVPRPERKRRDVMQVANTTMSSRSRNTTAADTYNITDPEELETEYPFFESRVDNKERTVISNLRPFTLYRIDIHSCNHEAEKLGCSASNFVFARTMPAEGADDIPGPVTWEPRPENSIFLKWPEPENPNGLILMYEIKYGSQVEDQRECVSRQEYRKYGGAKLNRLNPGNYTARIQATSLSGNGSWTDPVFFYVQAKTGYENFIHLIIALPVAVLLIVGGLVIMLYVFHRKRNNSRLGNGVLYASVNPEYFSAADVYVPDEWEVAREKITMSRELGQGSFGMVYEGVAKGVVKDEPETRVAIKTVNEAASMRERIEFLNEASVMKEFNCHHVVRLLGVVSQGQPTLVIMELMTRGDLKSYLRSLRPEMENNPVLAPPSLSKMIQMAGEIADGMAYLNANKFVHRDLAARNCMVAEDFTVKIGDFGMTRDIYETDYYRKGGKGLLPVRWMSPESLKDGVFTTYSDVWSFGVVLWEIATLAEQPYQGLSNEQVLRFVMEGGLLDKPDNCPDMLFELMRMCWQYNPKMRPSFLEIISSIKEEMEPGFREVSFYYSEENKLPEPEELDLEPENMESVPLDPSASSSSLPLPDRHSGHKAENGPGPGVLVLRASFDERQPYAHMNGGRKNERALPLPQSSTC

Conjugate Potency (IC50; µg/mL): inhibition of IGF-1 ligand stimulated autophosphorylation of IGF-1R in A431 cells, phospho-IGF-1R ELISA; degree of substitution 0 DOTA/mAb (native antibody) [1]: 0.04 µg/mL
Compound Potency (IC50; µg/mL): inhibition of IGF-1 ligand stimulated autophosphorylation of IGF-1R in A431 cells, phospho-IGF-1R ELISA [2]: 0.04 µg/mL
B1: HuMIGF-1R (AVE1642) (antibody, human IgG1, kappa)
light: DVVMTQTPLSLPVSLGDPASISCRSSQSIVHSNVNTYLEWYLQKPGQSPRLLIYKVSNRFSGVPDRFSGSGAGTDFTLRISRVEAEDLGIYYCFQGSHVPPTFGGGTKLEIKRTVAAPSVFIFPPSDEQLKSGTASVVCLLNNFYPREAKVQWKVDNALQSGNSQESVTEQDSKDSTYSLSSTLTLSKADYEKHKVYACEVTHQGLSSPVTKSFNRGEC
heavy: not shown

Kd [3]: 2 nM
B2: [^177Lu]-Compound B-HuMIGF-1R (antibody)
light: B1 light
heavy: not shown
modifications: Compound B (DOTA-GA with undecanoyl linker, TFP ester) conjugated to the antibody, sites not stated; chelate loaded with 177Lu

Compound Potency (IC50; µg/mL): inhibition of IGF-1 ligand stimulated autophosphorylation of IGF-1R in A431 cells, phospho-IGF-1R ELISA [2]: 0.04 µg/mL
Kd [4]: 0.7 nM
Kd [5]: 2.3 nM
Kd [6]: 1.7 nM
Kd [7]: 1.6 nM
Kd [8]: 3 nM
Kd [9]: 2.9 nM
Kd [10]: 1.9 nM
Kd [11]: 2.2 nM
Kd [3]: 2.2 nM
B3: [^177Lu]-Compound C-HuMIGF-1R (antibody)
light: B1 light
heavy: not shown
modifications: Compound C (DOTA-GA with PEG3 linker, TFP ester) conjugated to the antibody, sites not stated; chelate loaded with 177Lu

Kd [3]: 2.9 nM
B4: [^177Lu]-Compound A-HuMIGF-1R (antibody)
light: B1 light
heavy: not shown
modifications: Compound A (DOTA-GA anhydride) chelate conjugated to the antibody, sites not stated; chelate loaded with 177Lu
notes: also called Commercial Standard

Compound Potency (IC50; µg/mL): inhibition of IGF-1 ligand stimulated autophosphorylation of IGF-1R in A431 cells, phospho-IGF-1R ELISA [2]: 0.19 µg/mL
Kd [12]: 6.9 nM
B5: [^111In]-Compound C-HuMIGF-1R (antibody)
light: B1 light
heavy: not shown
modifications: Compound C (DOTA-GA with PEG3 linker, TFP ester) conjugated to the antibody, sites not stated; chelate loaded with 111In
